B1: His-TFIIEβ/WT [not stated] / Flag-TFIIEα [not stated] (parent)
chain 1: MDPSLLRERELFKKRALSTPVVEKRSASSESSSSSSKKKKTKVEHGGSSGSKQNSDHSNGSFNLKALSGSSGYKFGVLAKIVNYMKTRHQRGDTHPLTLDEILDETQHLDIGLKQKQWLMTEALVNNPKIEVIDGKYAFKPKYNVRDKKALLRLLDQHDQRGLGGILLEDIEEALPNSQKAVKALGDQILFVNRPDKKKILFFNDKSCQFSVDEEFQKLWRSVTVDSMDEEKIEEYLKRQGISSMQESGPKKVAPIQRRKKPASQKKRRFKTHNEHLAGVLKDYSDITSSK
chain 2: MADPDVLTEVPAALKRLAKYVIRGFYGIEHALALDILIRNSCVKEEDMLELLKFDRKQLRSVLNNLKGDKFIKCRMRVETAADGKTTRHNYYFINYRTLVNVVKYKLDHMRRRIETDERDSTNRASFKCPVCSSTFTDLEANQLFDPMTGTFRCTFCHTEVEEDESAMPKKDARTLLARFNEQIEPIYALLRETEDVNLAYEILEPEPTEIPALKQSKDHAATTAGAASLAGGHHREAWATKGPSYEDLYTQNVVINMDDQEDLHRASLEGKSAKERPIWLRESTVQGAYGSEDMKEGGIDMDAFQEREEGHAGPDDNEEVMRALLIHEKKTSSAMAGSVGAAAPVTAANGSDSESETSESDDDSPPRPAAVAVHKREEDEEEDDEFEEVADDPIVMVAGRPFSYSEVSQRPELVAQMTPEEKEAYIAMGQRMFEDLFE

In this experiment the parent is B1. The experiment is described as follows: co-immunoprecipitation (IP of IIEα), immunoblot quantified. The conditions noted are these: with Flag-TFIIEα, n = 3, means ± s.d., read off a plot.

Consider chain 1 MDPSLLRERELFKKRALSTPVVEKRSASSESSSSSSKKKKTKVEHGGSSGSKQNSDHSNGSFNLKALSGSSGYKFGVLAKIVNYMKTRHQRGDTHPLTLDEILDETQHLDIGLKQKQWLMTEALVNNPKIEVIDGKYAFKPKYNVRDKKALLRLLDQHDQRGLGGILLEDIEEALPNSQKAVKALGYQILFVNRPDKKKILFFNDKSCQFSVDEEFQKLWRSVTVDSMDEEKIEEYLKRQGISSMQESGPKKVAPIQRRKKPASQKKRRFKTHNEHLAGVLKDYSDITSSK [chain 1 D187Y], for which the screen value is, setting by setting: (150 mM KCl) 0.85 a.u; (500 mM KCl) 0.45 a.u.

On to chain 1 MDPSLLRERELFKKRALSTPVVEKRSASSESSSSSSKKKKTKVEHGGSSGSKQNSDHSNGSFNLKALSGSSGYKFGVLAKIVNYMKTRHQRGDTHPLTLDEILDETQHLDIGLKQKQWLMTEALVNNPKIEVIDGKYAFKPKYNVRDKKPLLRLLDQHDQRGLGGILLEDIEEALPNSQKAVKALGDQILFVNRPDKKKILFFNDKSCQFSVDEEFQKLWRSVTVDSMDEEKIEEYLKRQGISSMQESGPKKVAPIQRRKKPASQKKRRFKTHNEHLAGVLKDYSDITSSK [chain 1 A150P], for which the screen value is, setting by setting: (150 mM KCl) 0.78 a.u; (500 mM KCl) 0.67 a.u.
